Square brackets hold non-standard residues; d marks the D form. PEG60k = one 60 kD PEG attached to the residue; Phe(4-Ac) = CC(=O)c1ccc(C[C@H](N)C(=O)O)cc1
T1: IL-2Rαβγ triple receptor (UniProt P01589 22-272; P14784 27-551; P31785 23-369)
T1 sequence (looked up) 1: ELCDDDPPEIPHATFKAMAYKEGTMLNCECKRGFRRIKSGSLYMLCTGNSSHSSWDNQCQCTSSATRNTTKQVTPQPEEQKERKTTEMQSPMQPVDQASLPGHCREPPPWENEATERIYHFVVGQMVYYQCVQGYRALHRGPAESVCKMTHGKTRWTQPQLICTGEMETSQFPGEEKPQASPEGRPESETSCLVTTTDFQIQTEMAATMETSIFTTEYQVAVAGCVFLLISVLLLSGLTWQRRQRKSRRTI
T1 sequence (looked up) 2: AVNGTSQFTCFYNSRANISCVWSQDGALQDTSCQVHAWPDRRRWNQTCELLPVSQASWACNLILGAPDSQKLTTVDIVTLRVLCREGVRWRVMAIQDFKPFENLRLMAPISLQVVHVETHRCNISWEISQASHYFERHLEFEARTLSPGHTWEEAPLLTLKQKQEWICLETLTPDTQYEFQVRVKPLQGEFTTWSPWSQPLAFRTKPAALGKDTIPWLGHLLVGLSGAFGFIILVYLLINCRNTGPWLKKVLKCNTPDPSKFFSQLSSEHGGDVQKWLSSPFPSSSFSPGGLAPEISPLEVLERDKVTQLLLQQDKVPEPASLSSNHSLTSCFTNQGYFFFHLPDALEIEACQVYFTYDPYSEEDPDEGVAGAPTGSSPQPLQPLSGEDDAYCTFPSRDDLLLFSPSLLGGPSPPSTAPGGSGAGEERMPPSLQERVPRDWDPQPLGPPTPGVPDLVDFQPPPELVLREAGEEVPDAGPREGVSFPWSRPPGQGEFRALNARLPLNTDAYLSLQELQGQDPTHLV
T1 sequence (looked up) 3: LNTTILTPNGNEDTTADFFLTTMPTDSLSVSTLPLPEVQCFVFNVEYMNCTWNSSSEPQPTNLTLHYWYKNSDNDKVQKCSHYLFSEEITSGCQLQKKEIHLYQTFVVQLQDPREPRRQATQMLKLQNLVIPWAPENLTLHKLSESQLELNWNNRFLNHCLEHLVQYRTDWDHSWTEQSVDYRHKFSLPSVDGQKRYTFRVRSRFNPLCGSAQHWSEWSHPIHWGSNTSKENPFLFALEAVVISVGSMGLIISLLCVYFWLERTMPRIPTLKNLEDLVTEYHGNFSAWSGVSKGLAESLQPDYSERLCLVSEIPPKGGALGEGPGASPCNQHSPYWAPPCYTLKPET


Target: T1, IL-2Rαβγ triple receptor
Assay: cell-based or functional assay

Binder	Activation of IL-2αβγ triple receptor EC50 (STAT5 luciferase reporter gene assay)
60k-1PEG-IL2-N88R-N33pAcF (ligand) APTSSSTKKTQLQLEHLLLDLQMILNGINNYK[Phe(4-Ac)](PEG60k)PKLTRMLTFKFYMPKKATELKHLQCLEEELKPLEEVLNLAQSKNFHLRPRDLISRINVIVLELKGSETTFMCEYADETATIVEFLNRWITFSQSIISTLT	9.21 nM
60k-1PEG-IL2-N88R-N77pAcF (ligand) APTSSSTKKTQLQLEHLLLDLQMILNGINNYKNPKLTRMLTFKFYMPKKATELKHLQCLEEELKPLEEVLNLAQSK[Phe(4-Ac)](PEG60k)FHLRPRDLISRINVIVLELKGSETTFMCEYADETATIVEFLNRWITFSQSIISTLT	5.12 nM
40k-1PEG-IL2-N88R-N77pAcF (ligand, not fully specified) APTSSSTKKTQLQLEHLLLDLQMILNGINNYKNPKLTRMLTFKFYMPKKATELKHLQCLEEELKPLEEVLNLAQSK[Phe(4-Ac)](PEG‑hydroxylamine 40 kDa)FHLRPRDLISRINVIVLELKGSETTFMCEYADETATIVEFLNRWITFSQSIISTLT	1.92 nM
20k-1PEG-IL2-N88R-N77pAcF (ligand, not fully specified) APTSSSTKKTQLQLEHLLLDLQMILNGINNYKNPKLTRMLTFKFYMPKKATELKHLQCLEEELKPLEEVLNLAQSK[Phe(4-Ac)](PEG‑hydroxylamine 20 kDa)FHLRPRDLISRINVIVLELKGSETTFMCEYADETATIVEFLNRWITFSQSIISTLT	0.5 nM

Second part, the binder after the results:

Activation of IL-2αβγ triple receptor EC50 (STAT5 luciferase reporter gene assay)	Binder
0.319 nM	20k-1PEG-IL2-N88R-N33pAcF (ligand, not fully specified) APTSSSTKKTQLQLEHLLLDLQMILNGINNYK[Phe(4-Ac)](PEG‑hydroxylamine 20 kDa)PKLTRMLTFKFYMPKKATELKHLQCLEEELKPLEEVLNLAQSKNFHLRPRDLISRINVIVLELKGSETTFMCEYADETATIVEFLNRWITFSQSIISTLT
3.69 nM	40k-1PEG-IL2-N88R-N33pAcF (ligand, not fully specified) APTSSSTKKTQLQLEHLLLDLQMILNGINNYK[Phe(4-Ac)](PEG‑hydroxylamine 40 kDa)PKLTRMLTFKFYMPKKATELKHLQCLEEELKPLEEVLNLAQSKNFHLRPRDLISRINVIVLELKGSETTFMCEYADETATIVEFLNRWITFSQSIISTLT
